Measurements taken from patent US5258292A, “Enzymic process for the synthesis of ammonium adipate” (Rhone-Poulenc Chimie, priority 1990, dated 1993).

Experiments:
enantioselective amidase = target: T1, enantioselective amidase (Rhodococcus erythropolis, UniProt P22984); experiment: Substrate preference of the enantioselective amidase; assay type: biochemical, Brevibacterium R 312; conditions: compared with the 2-arylpropionamide derivatives, especially 2-phenylpropionamide and 2-(3-benzoylphenyl)propionamide
T1 sequence (P22984 2-521): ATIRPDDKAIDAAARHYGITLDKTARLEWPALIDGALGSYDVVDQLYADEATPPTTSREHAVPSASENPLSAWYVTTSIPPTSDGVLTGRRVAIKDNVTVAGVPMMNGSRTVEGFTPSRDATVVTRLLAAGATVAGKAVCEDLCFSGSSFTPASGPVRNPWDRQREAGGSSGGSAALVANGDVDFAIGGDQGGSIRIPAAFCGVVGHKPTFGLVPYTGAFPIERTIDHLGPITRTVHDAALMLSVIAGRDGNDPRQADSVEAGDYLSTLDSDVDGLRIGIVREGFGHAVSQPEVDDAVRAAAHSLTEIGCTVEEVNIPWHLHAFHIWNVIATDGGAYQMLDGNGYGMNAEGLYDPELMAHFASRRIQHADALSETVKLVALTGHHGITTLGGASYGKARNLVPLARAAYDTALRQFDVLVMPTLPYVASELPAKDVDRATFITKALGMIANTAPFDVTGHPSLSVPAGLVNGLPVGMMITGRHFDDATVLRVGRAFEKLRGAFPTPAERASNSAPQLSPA
Description: Furthermore, the selectivity of the amidase towards the R enantiomer of HPPAmide is representative of the selectivity towards the S enantiomer of the 2-arylpropionamide derivatives.

[1] = Assay of the enzymic activity: hydrolysis of 2-phenylpropionamide (HPLC); assay type: biochemical; conditions: enzyme purified to homogeneity; 1 unit = 1 μmol of 2-phenylpropionamide hydrolyzed per h; 30° C., pH 7.5
Description: The fraction containing the activity is incubated for 30 min at 30° C. in 500 μl of 0.1 M Tris/HCl buffer, pH 7.5, containing 5 mM DTT and 18.1 mM 2-phenylpropionamide. After incubation, 2 ml of an acetonitrile/1 N HCl mixture (90/10) and then 2 ml of a 50 mM H3 PO4 /CH3 CN mixture (75/25) are added to the incubation mixture. After centrifugation at 5000 g for 10 min, an aliquot of the supernatant is injected into an HPLC apparatus for assay of the reaction products.
Column: Nucleosil 5-C18 25 cm
One activity unit is defined as the amount of enzyme required to hydrolyze 1 μmol of 2-phenylpropionamide per h.

[2] = Enantioselective amidase activity with HPPAmide as substrate (HPLC); assay type: biochemical; conditions: purified enzyme, purity of more than 80%; 1 U = 1 μmol of HPPAcid formed per hour
Description: b--one unit (U) is equivalent to 1 μmol of HPPAcid formed per hour under the conditions described below.
Consequently, the enantioselective enzymic activity was detected by using 2-(4-hydroxyphenoxy)propionamide (HPPAmide) as the substrate. The reaction is carried out at 25° C., with shaking, in a 50 mM sodium phosphate buffer, pH 7.0, in the presence of Brevibacterium R 312, and is stopped by the addition of a 55/40/5 (v/v) mixture of 0.05 M phosphoric acid, acetonitrile and 1 N HCl. The culture is then centrifuged and the supernatant is analyzed by reversed-phase HPLC (Hibar-Merck RP-18; 5 μm). Elution is effected with an 85/15 (v/v) solution of 0.005 M phosphoric acid and acetonitrile and the respective concentrations of HPPAmide and HPPAcid are measured by the position of the elution peaks and compared with a standard. The enantiomeric excess, defined as the ratio (R-S)/(R+S) x 100, in which R and S are the respective concentrations of the R and S enantiomers of the HPPAcid, is deduced either from polarimetric measurements (using the sodium absorption at 589 nm) or from HPLC analysis on a chiral column.

In the case of `CC(Oc1ccc(O)cc1)C(N)=O` (racemic) [R,S-2-(4-Hydroxyphenoxy)propionamide], the “substrate quality for the enantioselective amidase” value (enantioselective amidase) is reported as “better substrate”.

B1: enantioselective amidase of a Rhodococcus: enzyme purified to homogeneity from a Rhodococcus; sequence in FIG. 14 (protein)
chain: GLHELTLAQVAAKIENKELSPVELLDVILARVAEIEPKISAFVTITADSARKAARLAADEIAGGHYRGPLHGVPIGLKDLFEVAGVPNTASSRVRADYIPSSDGAAVEKLTAGGAVMIGKTHTHEFAYGAITPTTRNPWDPTRTPGGSSGGTAAALAAGLIFAGMGTDTGGSIRIPAAVCGTVGLKPTYGRVSRRGVTSLSWSLDHAGPLARTVEDAAIMLNQIAGYDRADPATVDVPVPDYAAALTGDVRGLRIGVPTNFYTDNVHPEVAAAADAAVAQLAHLGAVVREVKIPMAEVIVPTEWSLLVPEASAYHQQMLRERADHYTDETRTFLEAGELVPATDYIKALRVRTLIQAAFRELFQDIDVLIAPTVSSPALPLDDLEVTWPDGTSEGGTITYVRLSAPGNVTGLPALSVPSGFTEQGLPTGIQIIGRPFDEETVLNVGHAYEGCTDWPRLAPL
For B1, the specific activity [1] was 988 U/mg of protein.

B2: enantioselective amidase of Brevibacterium R 312: enzyme purified from Brevibacterium R 312, purity of more than 80%; sequence in FIG. 9 (protein)
chain: MATIRPDDKAIDAAARHYGITLDKTARLEWPALIDGALGSYDVVDQLYADEATPPTTSAEHAVPSASENPLSAWYVTTSIPPTSDGVLTGRRVAIKDNVTVAGVPMMNGSRTVEGFTPSRDATVVTRLLAAGATVAGKAVCEDLCFSGSSFTPASGPVRNPWDRQREAGGSSGGSAALVANGDVDFAIGGDQGGSIRIPAAFCGVVGHKPTFGLVPYTGAFPIERTIDHLGPITRTVHDAALMLSVIAGRDGNDPRQADSVEAGDYLSTLDSDVDGLRIGIVREGFGHAVSQPEVDDAVRAAAHSLTEIGCTVEEVNIPWHLHAFHIWNVIATDGGAYQMLDGNGYGMNAEGLYDPELMAHFASRRIQHADALSETVKLVALTGHHGITTLGGASYGKARNLVPLARAAYDTALRQFDVLVMPTLPYVASELPAKDVDRATFITKALGMIANTAPFDVTGHPSLSVPAGLVNGLPVGMMITGRHFDDATVLRVGRAFEKLRGAFPTPAERASNSAPQLSPA
Molecule B2 has a specific activity [2] of 815 U/mg.
